Experimental findings from WO2018134681A1 (dated 2018) are described below.

In one test the target is T1, human TGF-β2 (human, UniProt P61812 21-414).
T1 chain: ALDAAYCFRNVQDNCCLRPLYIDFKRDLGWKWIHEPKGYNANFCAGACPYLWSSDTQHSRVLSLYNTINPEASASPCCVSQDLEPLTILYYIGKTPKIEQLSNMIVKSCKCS
In words: SPR, Biacore T200, TGF-β homodimer immobilized on CM5 chip, Ab1 injected, 1:1 model. Background: SPR reads the build-up and loss of mass on a sensor chip optically.

The target of test [1] is T2, murine TGF-β1 (identical in amino acid sequence to rat TGF-β1) (mouse, UniProt P04202 279-390).
T2 construct: mature; also called Murine and Rat TGF-βΙ; murine/rat TGF-β1
T2 sequence (P04202 279-390 limits assumed): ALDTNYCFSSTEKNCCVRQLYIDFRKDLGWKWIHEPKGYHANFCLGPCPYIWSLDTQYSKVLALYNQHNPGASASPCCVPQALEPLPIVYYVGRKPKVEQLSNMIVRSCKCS
The description is as above.

Test [2] deals with T3, human TGF-β1 (human, UniProt P01137 279-390).
T3 construct: mature; also called TGF-βΙ; TGF-p1
T3 sequence (P01137 279-390 limits assumed): as the sequence (P04202 279-390 limits assumed) above, with S75A counted along it
Described as above.

Test [3] deals with T3, human TGF-β1. In words: cell-based or functional assay.

B1: Ab1 (antibody, human IgG4 S228P, kappa)
heavy: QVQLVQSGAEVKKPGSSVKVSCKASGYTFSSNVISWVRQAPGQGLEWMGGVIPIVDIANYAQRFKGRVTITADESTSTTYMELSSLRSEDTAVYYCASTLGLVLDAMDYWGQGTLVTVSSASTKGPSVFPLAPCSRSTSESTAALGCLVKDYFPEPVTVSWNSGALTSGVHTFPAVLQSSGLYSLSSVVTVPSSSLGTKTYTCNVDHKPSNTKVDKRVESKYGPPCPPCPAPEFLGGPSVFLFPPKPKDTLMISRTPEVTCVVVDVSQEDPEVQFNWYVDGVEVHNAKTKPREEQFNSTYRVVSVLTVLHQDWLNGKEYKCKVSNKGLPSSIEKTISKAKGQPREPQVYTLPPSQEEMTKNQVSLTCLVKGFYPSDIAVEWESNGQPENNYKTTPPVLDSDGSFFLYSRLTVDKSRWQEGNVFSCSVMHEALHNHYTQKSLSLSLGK
light: ETVLTQSPGTLSLSPGERATLSCRASQSLGSSYLAWYQQKPGQAPRLLIYGASSRAPGIPDRFSGSGSGTDFTLTISRLEPEDFAVYYCQQYADSPITFGQGTRLEIKRTVAAPSVFIFPPSDEQLKSGTASVVCLLNNFYPREAKVQWKVDNALQSGNSQESVTEQDSKDSTYSLSSTLTLSKADYEKHKVYACEVTHQGLSSPVTKSFNRGEC
notes: also called anti-TGF-β antibody Ab1; pan-TGF-β antibody
Broadly, the Kd is the concentration at which binding is half-saturated. A high value points to weaker binding. For the molecule B1, the figures for the Kd (with human TGF-β2; in test [1]; with human TGF-β1 [2]) were 3 nM, 2.8 nM and 1.48 nM, respectively. For the same molecule, the “NFAT-driven luciferase activity, fold change against isotype control Ab” value with human TGF-β1 [3] was determined as 1.45 fold change. The “NFAT-driven luciferase activity, fold change against no Ab control” value with human TGF-β1 [3] came out at 1.45 fold change.
